Data published in patent US10941200B2, “TREM2 cleavage modulators and uses thereof” (Deutsches Zentrum Für Neurodegenerative Erkrankungen EV, priority 2016, dated 2021).
“Also recorded” adds a separate entry of the source.

T1: human TREM2 (Homo sapiens, UniProt Q9NZC2)
T1 construct: HEK293 Flp-In cells either expressing human full-length TREM2 or empty vector; expressed in transfected cells
T1 sequence (Q9NZC2 19-230): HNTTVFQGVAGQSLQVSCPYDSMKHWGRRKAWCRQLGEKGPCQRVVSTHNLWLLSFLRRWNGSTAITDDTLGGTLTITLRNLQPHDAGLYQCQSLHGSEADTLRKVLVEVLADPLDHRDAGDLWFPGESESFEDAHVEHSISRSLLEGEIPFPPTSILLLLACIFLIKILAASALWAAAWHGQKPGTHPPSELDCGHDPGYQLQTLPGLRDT


What was measured:
Format in all cases: cell-based
[1] = tested on: human TREM2; assay: MALDI-TOF mass spectrometry analysis of TREM2 ectodomain cleavage (C-terminal fragment) in HEK293 cells; conditions: C-terminally FLAG-tagged TREM2 in HEK293 cells; FIG. 1B
Experimental: HEK293 Flp-In cells stably expressing WT and H157Y TREM2 were harvested in PBS. Cell pellets were frozen at −20° C. until use. Cells were lysed in lysis buffer (4% DDM, 0.1% N-octylglucoside, 10 mM Tris-HCl, pH 8.0, 5 mM EDTA, and 140 mM NaCl) containing protease inhibitor mix (Sigma-Aldrich) for 20 min on ice. Following a clarifying spin at 13,000 g for 20 min, supernatants were subjected to a second clarifying spin by centrifugation at 100,000 g for 1 h, and incubated with anti-FLAG M2-agarose (Sigma-Aldrich) overnight by rotation at 4° C. Beads were washed four times with IP/MS buffer (0.1% N-octylglucoside, 10 mM Tris-HCl, pH 8.0, 5 mM EDTA, and 140 mM NaCl) and two times with water. Beads were stored at −20° C. until IP/MS analysis.
IP/MS analysis was performed using Voyager DE STR (Applied Biosystems) as described previously). Immunoprecipitated peptides were eluted with TFA/CH3CN/water (1:20:20) saturated with α-cyano-4-hydroxy cinnamic acid. The dissolved samples were dried on a stainless plate and subjected to MALDI-TOF MS analysis.

[2] = target: T1, human TREM2; assay: sTREM2 ELISA of conditioned media from HEK293 Flp-In cells stably overexpressing wt TREM2 (ectodomain shedding); conditions: antibody 50 μg/mL, 24 hrs; normalized to immature TREM2; FIG. 7B
Experimental: (§1) 1*10^6-1.5*10^6 cells were seeded in the 6-well format. 24 hours later fresh medium was added to the cells. Antibody clones as generated by Dr. Feederle (Helmholtz Center Munich, Core Facility Monoclonal Antibody Development) were added simultaneously, i.e. for overnight treatment (about 24 hrs), at a final concentration of 50 μg/mL. On the next day, conditioned media and cells were collected and processed as described under “Preparation of conditioned media, cell lysates, and immunoblotting”.
(§2) ADAM10 inhibitor G1254023X (5 μM final concentration) and a control monoclonal antibody, which is specific for the C terminus of human TREM2, were used as positive and negative controls, respectively.
For quantitation of levels of sTREM2 in cell culture supernatants, an ELISA for human sTREM2 was established using the Meso Scale Discovery SECTOR Imager 2400. Streptavidin-coated 96-well plates were blocked overnight at 4° C. in 0.5% bovine serum albumin (BSA) and 0.05% Tween 20 in PBS (pH 7.4) (blocking buffer). For detection of human sTREM2, plates were shaken for 1 hour at room temperature with biotinylated polyclonal goat anti-human TREM2 capture antibody (0.25 mg/ml; R&D Systems) diluted in blocking buffer. Plates were washed subsequently four times with 0.05% Tween 20 in PBS (washing buffer) and incubated for 2 hours at room temperature with samples diluted 1:4 in 0.25% BSA and 0.05% Tween 20 in PBS (pH 7.4) (assay buffer) supplemented with protease inhibitors (Sigma). Recombinant human TREM2 protein (Holzel Diagnostika) was diluted in assay buffer in a two-fold serial dilution and used for the standard curve (concentration range, 4000 to […]). Plates were washed three times for 5 min with washing buffer before incubation for 1 hour at room temperature with mouse monoclonal anti-TREM2 antibody (1 mg/ml; Santa Cruz Biotechnology; B-3) diluted in blocking buffer. After three additional washing steps, plates were incubated with a SULFO-TAG-labeled anti-mouse secondary antibody (1:1000; Meso Scale Discovery) and incubated for 1 hour in the dark. Last, plates were washed three times with washing buffer followed by two washing steps in PBS and developed by adding Meso Scale Discovery Read buffer. The light emission at 620 nm after electrochemical stimulation was measured using the Meso Scale Discovery SECTOR Imager 2400 reader. To quantify the levels of sTREM2 secreted from HEK293 Flp-In cells, conditioned media from biological replicates were analyzed in duplicates. The sTREM2 standard curves were generated using the MasterPlex ReaderFit software (MiraiBio Group, Hitachi Solutions America) through a five-parameter logistic fit. Levels of sTREM2 were subsequently normalized to levels of immature TREM2 as quantified from Western Blots.

[3] = target: T1, human TREM2; assay: Immunoblotting of mature TREM2 in membrane fractions of HEK cells stably overexpressing wt TREM2; conditions: antibody 50 μg/mL, 24 hrs; normalized to immature TREM2; FIG. 7C
Experimental: HEK293 Flp-In cells stably overexpressing TREM2 or TREM2-DAP12 cDNA constructs were seeded at a density of 1.5×10^5/cm^2 and medium changed 48 h post seeding. Conditioned medium was collected after 18-20 h, immediately cooled down on ice, centrifuged at 13,000 rpm for 20 min at 4° C. and supernatants frozen at −20° C. until analysis. Supernatants were directly subjected to standard 15% SDS-PAGE. To prepare membrane fractions, cells were washed twice with ice-cold PBS, resuspended in ice-cold hypotonic buffer (0.01 M Tris, pH 7; 1 mM EDTA; 1 mM EGTA), freshly supplemented with protease inhibitor (Sigma) and incubated on ice for 30 min. After snap freezing in liquid
nitrogen and thawing, the disrupted cells were centrifuged at 13,000 rpm for 45 min at 4° C.
The resulting pellet was resuspended in STE lysis buffer (150 mM NaCl, 50 mM Tris-HCl,
pH 7.6, 2 mM EDTA, 1% Triton-X 100), incubated for 20 min on ice and clarified by centrifugation at 13,000 rpm for 30 min at 4° C. Protein concentrations were measured using the BCA method, equal amounts of protein were mixed with Laemmli sample buffer, supplemented with beta mercaptoethanol, separated by SDS-PAGE and transferred onto polyvinylidene difluoride membranes (Hybond P; Amersham Biosciences, Aylesbury, UK). Bound antibodies were visualized by corresponding HRP-conjugated secondary antibodies
using enhanced chemiluminescence technique (Pierce). Quantification of immunoblots was performed on a LAS-4000 image reader and analyzed using the Multi-Gauge V3.0 software (both Fujifilm Life Science).
as §1, §2

| Molecule | TREM2 C-terminal fragment cleavage peak in MALDI-TOF mass spectra upon ADAM inhibition [1] | sTREM2 levels (ELISA), result in words [2] | levels of mature TREM2 in the membrane fraction (quantified immunoblots), result in words [3] |
| --- | --- | --- | --- |
| CNC(=O)[C@H](Cc1c[nH]c2ccccc12)NC(=O)[C@@H](CC(=O)NO)CC(C)C [GM] | no identified peak; also recorded: did not show any peak |  |  |
| clone 7A12: rat monoclonal antibody against TREM2 cleavage site peptide; heavy chain variable SEQ ID NO: 25, light chain variable SEQ ID NO: 35 (antibody, V domains shown, Clone 7A12 variable region of the heavy chain; Clone 7A12 variable region of the light chain) VH: EVKLLESGGGLVQPGGSMRLSCAASGFTFTDFYMNWIRQPAGKAPEWLGLIRNKANGYTTQYNPSVKGRFTISRDNTQNMLYLQMNTLRGEDTATYYCARIGINNGGSLDYWGQGVMVTVSS VL: DILINQSPASLTVSAGEKVTMSCKSSQSLLYSEKNQDYLAWYQQKPGQSPKLLMYGASYRHTGVPDRFTGSGSGTDFTLTISSVQAEDLADYYCEQTYSYPYTFGAGTKLELK |  | slight trend toward reduced sTREM2 levels | increased levels of TREM2 in the membrane fraction |
| clone 21A3: rat monoclonal antibody against TREM2 cleavage site peptide; heavy chain variable SEQ ID NO: 27, light chain variable SEQ ID NO: 37 (antibody, V domains shown, Clone 21A3 variable region of the heavy chain; Clone 21A3 variable region of the light chain) VH: EVKLLESGGGLVQPGGSMRLSCAASGFTFTDFYMNWIRQPAGKAPEWLGLIRNKANGYTTQYNPSVKGRFTISRDNTQNMLYLQMNTLRGEDTATYYCARIGINNGGSLDYWGQGVMVTVSS VL: DILINQSPASLTVSAGEKVTMSCKSSQSLLYSEKNQDYLAWYQQKPGQSPKLLMYGASYRHTGVPDRFTGSGSGTDFTLTISSVQAEDLADYYCEQTYSYPYTFGAGTKLELK |  | slight trend toward reduced sTREM2 levels |  |
| clone 8A11: rat monoclonal antibody against TREM2 cleavage site peptide; heavy chain variable SEQ ID NO: 26, light chain variable SEQ ID NO: 36 (antibody, V domains shown, Clone 8A11 variable region of the heavy chain; Clone 8A11 variable region of the light chain) VH: EVKLLESGGGLVQPGGSMRLSCAASGFTFTDFYMNWIRQPAGKAPEWLGLIRNKTKGYTTEYNTSVKGRFTISRDNTQNMLYLQMNSLRPEDTATYYCARIGVNNGGSLDYWGQGVMVTVSS VL: DILIIQSPASLTVSAGARVTMSCKSSQSLLYSENNQDYLAWYQQKPGQFPKLLIYGASNRHTGVPDRFTGSGSGTDFTLTISSVQAEDLADYYCEQTYSYPYTFGAGTKLELK |  |  | increased levels of TREM2 in the membrane fraction |
| clone 18F9: rat monoclonal antibody against TREM2 cleavage site peptide; heavy chain variable SEQ ID NO: 29, light chain variable SEQ ID NO: 39 (antibody, V domains shown, Clone 18F9 variable region of the heavy chain; Clone 18F9 variable chain of the light region) VH: EVKLLESGGGLVQPGGSMRLSCVVSGFTFTDFYMNWIRQAAGKAPEWLGLIRNKVNGYRTEYNPSVKGRFTISRDNIQNMLYLQMNTLRAEDTATYYCARIGINNGGSLDYWGQGVMVTVSS VL: DILINQSPASLTVSAGEKVTMSCKSSQSLLYSENNQDYLAWYQQKPGQFPKLLIYGASNRHTGVPDRFTGSGSGTDFTLTISSVQAEDLADYYCEQTYSYPYTFGAGTKLELK |  | slight trend toward reduced sTREM2 levels |  |
| clone 10C3: rat monoclonal antibody against TREM2 cleavage site peptide; heavy chain variable SEQ ID NO: 28, light chain variable SEQ ID NO: 38 (antibody, V domains shown, Clone 10C3 variable region of the heavy chain; Clone 10C3 variable region of the light chain) VH: EVKLLESGGGLVQPGGSMRLSCAASGFTFTDFYMNWIRQPAGETPEWLGLIRNKTKGYTTEYNPSVKGRFTISRDNTQNMLYLQMNSLRPEDTATYYCARIGTNNGGSLDYWGQGVMVTVSS VL: DILIIQSPASLTVSAGARVTMSCKSSQSLLYSENNQDYLAWYQQKPGQFPKLLIYGASNRHTGVPDRFTGSGSGTDFTLTISSVQAEDLADYYCEQTYSYPYTFGAGTKLELK |  | slight trend toward reduced sTREM2 levels | increased levels of TREM2 in the membrane fraction |
| clone 15C5: rat monoclonal antibody against TREM2 cleavage site peptide; heavy chain variable SEQ ID NO: 30, light chain variable SEQ ID NO: 40 (antibody, V domains shown, Clone 15C5 variable region of the heavy chain; Clone 15C5 variable region of the light chain) VH: EVKLLESGGGLVQPGGSMRLSCAASGFTFTDFYMNWIRQPAGKAPEWLGLIRNKAYGYTTEYNPSVKGRFTISRDNTQDMLYLQMNTLRAEDTATYYCARIGINYGGSLDYWGQGVMVTVSS VL: DILINQSPASLTVSAGEKVTVSCKSSQSLLYSESNQDYLAWYQQKPGQFPKLLIYGASYRHTGVPDRFTGSGSGTDFTLTISSVQAEDLAHYYCEQTYSYPYTFGAGTKLELK |  | slight trend toward reduced sTREM2 levels |  |
